Data taken from patent US20140287419A1, “Compositions Having Dicamba Decarboxylase Activity and Methods of Use” (priority 2013, published 2014).

Test: 14C assay with IPTG-induced recombinant E. coli cells (14CO2 capture from [14C]-carboxyl-labeled dicamba)
Conditions: for Dicamba Decarboxylase Activity: IPTG-induced recombinant E. coli cells, [14C]-carboxyl-labeled dicamba, 14CO2 capture; for Enzymatic Detection level: dicamba decarboxylation activity of the protein of the given SEQ ID NO

Molecule | Dicamba Decarboxylase Activity | Enzymatic Detection level
46 (protein, listed as Rhodococcus opacus) MARIITLEEHYLDPAIAAASAPLARELSPDFAAAYDPASGLSYTPSAQVLQDLGQRRIADMDTHGISMQVLSCLTTQQVPADVAPDLVRAANDTAAAAVRAHPDRFAAFAALPTTAPDAAATELARCIDDLGFVGTMINGRTDGEFLDAPRFDPILATAAARNVPIYLHPAVPPRATSDSNYAGLAPLVTARLQTSAWGWHQETAVHFLHLVLSGVLDRYPNLQFILGHWGEMIPFYLDRLDEALPQAVTNLDRTISDYVRENVYITPSGMFNQAQLQYCVETLGVDRILYSVDYPFIGNDGAVSFLDEANLPDEAKHQIAHQNTEKLLGL | High | High
44 (protein, listed as Mycobacterium avium) MARIITVEEHFQHPEVSARVAELTGPAVEGLAEFGNAFSLDPDSTARLGGNRLAHMDQVGIDVQVVSHGNGSPGTLQHPEAVELCRRVNNDLAAQIAENPDRFRGFATLPLYDPAAAAEELRRCVGDLGFVGALIAGSYDGLFLDDERFDPILTAAEAVDFPIYVHPGLPEAPVSQRYYAGSWPASVHMMFSGPAFGWHAEAGIHIVRLILSGALDRHPTLKLLSGHWGELAAFYLERLDETLGLLPTGLERAPSDYYRQQVWITPSGMYNQNQLNFMTAELGAQRIIYSEDFPYVVRDNVSTFLEQAGLSEADTHAIAHTNAEALLRI | High | High
50 (protein, listed as Streptomyces sp.) MARIVTLEEHWTDPAVTAAGMPNLLDHVPGYAAAFDPDTGMPYPRHPELLEDLGAARIADMDRHGITTQVLSLVNTFLPADVAPRLTAAANDAMAAAVEAFPGRFAAFATLPTAVPGAAADELRRCVGELGFVGTMIMGRTDGEFLDQPRFDPILRAASDLSVPVYLHPAPPPVAVSEASYAGGLSPAVSAAFRLAAWGWHQETAVHLLHLVLAGVLDRYPGLQFVLGHWGEFIPFYLDRLDESMPRRMTGLDRTFREYFRDNVFITPSGMFSQAQLRYCADTVGTDRIIHSVDFPMLGNEGAVSFLTDSHLSREDQEKIAHGNADALLGLG | High | High
45 (protein, Mycobacterium sp) MANDDLAEVIAAHPDRFAGFAALPMRDPQAAAVELQRAVGTHGFCGAMINGLIEGRFLDDPAFAPLLSTAADLGVPLYLHPSFPPPQVAEIYFGGLAPVLGDLLATAGWGWHAETALHVLRLVATGVFDRLPELWVIVGHMGEMIPFALARIDTVLSPVAQLRQPVAQYFQTNVWFTTSGYTTFPPLQCALSTVGIDRLIFSVDYPYTDNTSARALLDTAPISPVDREKLAHGTVEALLRV | No | No
42 (protein, Agrobacterium radiobacter) MAQGKIALEEHFAIPDTLQDSAGFVPGDYWKELSARLLDIHEQRLMQMDAYGIEKMILSLNAPAVQAIPDKAKALEISRRANDFLAEQCARNPDRFLGFAALPLQDPDAATAELQRCVKTLGFVGALVNGFSQEGDGVTPLYYDLPQYRGFWAEVEKLAVPFYLHPRNPLPQDSRIYAGHPWLMGPTWAFAQETAVHALRLVGSGLFDDHPALRIILGHMGEGLPYMMWRIDNRNAWVKVAPNYPAKRRIADYFNENFYITTSGNFRTQSLVDAMLEIGADRILFSTDWPFENIDHASDWFDTATISEADRLKIGRTNAATLFNLES | Low | Low
47 (protein, listed as Serratia odorifera) MAKIICLEEHTLDKALVMASMPAALAQAPFLSDWGKTITDGNLPDRSRPQIEKNDLINVKGADIGRGRLDDMDEAGITMQVLSVGGFPHLISAAEGVDLNRAANDRLANAVNAHPDRFAAFATLPWAQPDAAEKELERAVKELGFKGALLNGRPSIHFLDHPDYDGLLARFNALGVPLYLHPGLPVRSVQQAYYSGFSDEVTARLSMFGWGWHHEAGIHLLRLILSGAFDKYPNLQVISGHWGEMLPFWLQRLDDSLPQAATGLRRTITQTFREQVYVTPSGMLTLPHFQFIYALLGAERILFSVDYPYQTLDGVKAFIQSLPVPEEAKEAIAFRNAERLFGLTS | High | High
51 (protein, listed as Mycobacterium gilvum) MARVIAIEEHYAHPGLQPAEALANLRKHPQLARIQDKLEDLGAGRLADMDAAGIDMQVLSHTVPGAEALPAAQAVDVVRQTNDDLAEVIAAHPDRFAGFAALPMRDPQAAATELQRAVGTLGFCGAMINGLIEGRFLDHPDFTPLLSTAADLGVPLYLHPSFPPPQVAQIYFGGLPPVLADLLATAGWGWHAETALHVLRLISTGVFDRLPELRVIVGHMGEMIPFALARIDTVLSPMTELRQPVAQYFQTNVWFTTSGYTTFPPLQCALSTVGIDRLIFSVDYPYTDNASARALLDTAPISPVDREKLAHATVEALLRV | High | High
43 (protein, listed as Rhizobium leguminosarum) MAQGKIALEEHFAIPETLQDSAGFVPGDYWTELSARLLDIQDKRLRLMDTHGIEKMILSLNAPAVQAIPDKAKAVEISRRANDFLAEQCVKNPNRFLGFAALPLQDPDAATQELQRCVTTMGFVGALVNGFSQEGDGTTPLYYDLPQYRPFWAEVEKLDVPFYLHPRNPLPQDSRIYAGHSWLMGPTWAFAQETAVHALRLMGSGLFDEHPALRIIVGHMGEGLPYMMWRIDNRNAWVKVEKSYPAKRPIADYFNENFYITTSGNFRTQSLIDAMLEIGADRILFSADWPFENVDHAANWFDSATISEADRLKIGRTNAVSLFKLDR | High | High
48 (protein, listed as Amycolatopsis mediterranei) MASMKLYGLEEHFVTADVIEAWRRRDPGLAEPMMKWAVASDITPALLDVDGGRIAAMDDAGIDTTVLSLTTPGLQNLDAAEAVALQAPTNDLIAAAVRRHPGRFQGFATLATSAPAAAADELRRAVTELGLNGALVNANSRGRALDAPGFWDIYEAAEDLRAPVYLHPGVPVPAVTEAYYRGFGEPVNSMLATGAFGWHYDAGLTILRMIVAGVFDRFPGLQVILGHWGEVVLFYLDRVAAMDKLTALRRPIAEYFRSNIFITPGGISSHKYLRWSLETVGVERIMYASDYPFNTERAGSARRFLDTAPVDEAGRERIAYRNWEELIAGIRR | High | High
49 (protein, listed as Streptomyces sp.) MAKIIALEEHFSDPAVAKAGAARARALSPGFAASYSPASGLPYSPSPEVLENLAEKRLADMDAGGITMQVLSGLGAQTVPADVAPALVAGSNDKAAAAVRAHPDRFAAFAALPTATPEAAVAELDRSVNELGFVGTLIMGRTEGEFLDAPRFEPILARAAALKVPVFLHPGVPPREITDSNYAAGLPTGIGTRLQTAAWGWHQETAVHFLHLVHSGVLDRYPDLQFILGHWGEMIPFYLDRVDEALPQRATGLDRSFHEYFRENVYLAPSGMWSQAQLRFCLETVPLERIVFAVDYPFIGNEGAVPFLEKAELPQADKRKIAHENAERLLGL | High | High
52 (protein, listed as Streptomyces sp.) MAKIIALEEHFSDPAVAKAGAARAQALSPGFAASYSPASGLPYSPSPEVLENLAEKRLADMDAGGITMQVLSGLSAQTVPADVAPALVAGSNDKAAAAVRAHPDRFAAFAALPTAAPEAAVAELDRSVNELGFVGTLIMGRTEGEFLDAPRFEPILARAAALKVPVFLHPGVPPREITDSNYAAGLPTGIGTRLQTAAWGWHQETAVHFLHLVHSGVLDRYPDLQFILGHWGETIPFYLDRVDEALPQRATGLDRSFHEYFRENVYLAPSGMWSQAQLRFCLETFPLERIVFAVDYPFIGNEGAVPFLEKAELPEADKRKIAHENAERLLGL | High | High
